# Data published in patent US12104181B2, “Compositions and methods for treating viral infections targeting TRIM7” (THE BOARD OF REGENTS OF THE UNIVERSITY OF TEXAS SYSTEM, priority 2021, dated 2024).
# B1: TRIM27: human RING type E3 ligase expressed from lentiviral vector (protein, UniProt P14373 1-513, looked up)
# Zinc finger protein RFP: MASGSVAECLQQETTCPVCLQYFAEPMMLDCGHNICCACLARCWGTAETNVSCPQCRETFPQRHMRPNRHLANVTQLVKQLRTERPSGPGGEMGVCEKHREPLKLYCEEDQMPICVVCDRSREHRGHSVLPLEEAVEGFKEQIQNQLDHLKRVKDLKKRRRAQGEQARAELLSLTQMEREKIVWEFEQLYHSLKEHEYRLLARLEELDLAIYNSINGAITQFSCNISHLSSLIAQLEEKQQQPTRELLQDIGDTLSRAERIRIPEPWITPPDLQEKIHIFAQKCLFLTESLKQFTEKMQSDMEKIQELREAQLYSVDVTLDPDTAYPSLILSDNLRQVRYSYLQQDLPDNPERFNLFPCVLGSPCFIAGRHYWEVEVGDKAKWTIGVCEDSVCRKGGVTSAPQNGFWAVSLWYGKEYWALTSPMTALPLRTPLQRVGIFLDYDAGEVSFYNVTERCHTFTFSHATFCGPVRPYFSLSYSGGKSAAPLIICPMSGIDGFSGHVGNHGHSMETSP
# modifications: lentiviral expression
# notes: human RING type E3 ligase expressed from lentiviral vector
# B2: TRIM29: human RING type E3 ligase expressed from lentiviral vector (protein, UniProt Q14134 1-588, looked up)
# Tripartite motif-containing …: MEAADASRSNGSSPEARDARSPSGPSGSLENGTKADGKDAKTTNGHGGEAAEGKSLGSALKPGEGRSALFAGNEWRRPIIQFVESGDDKNSNYFSMDSMEGKRSPYAGLQLGAAKKPPVTFAEKGELRKSIFSESRKPTVSIMEPGETRRNSYPRADTGLFSRSKSGSEEVLCDSCIGNKQKAVKSCLVCQASFCELHLKPHLEGAAFRDHQLLEPIRDFEARKCPVHGKTMELFCQTDQTCICYLCMFQEHKNHSTVTVEEAKAEKETELSLQKEQLQLKIIEIEDEAEKWQKEKDRIKSFTTNEKAILEQNFRDLVRDLEKQKEEVRAALEQREQDAVDQVKVIMDALDERAKVLHEDKQTREQLHSISDSVLFLQEFGALMSNYSLPPPLPTYHVLLEGEGLGQSLGNFKDDLLNVCMRHVEKMCKADLSRNFIERNHMENGGDHRYVNNYTNSFGGEWSAPDTMKRYSMYLTPKGGVRTSYQPSSPGRFTKETTQKNFNNLYGTKGNYTSRVWEYSSSIQNSDNDLPVVQGSSSFSLKGYPSLMRSQSPKAQPQTWKSGKQTMLSHYRPFYVNKGNGIGSNEAP
# modifications: lentiviral expression
# notes: as for B1
# B3: TRIM32: human RING type E3 ligase expressed from lentiviral vector (protein, UniProt Q13049 2-653, looked up)
# E3 ubiquitin-protein ligase …: AAAAASHLNLDALREVLECPICMESFTEEQLRPKLLHCGHTICRQCLEKLLASSINGVRCPFCSKITRITSLTQLTDNLTVLKIIDTAGLSEAVGLLMCRSCGRRLPRQFCRSCGLVLCEPCREADHQPPGHCTLPVKEAAEERRRDFGEKLTRLRELMGELQRRKAALEGVSKDLQARYKAVLQEYGHEERRVQDELARSRKFFTGSLAEVEKSNSQVVEEQSYLLNIAEVQAVSRCDYFLAKIKQADVALLEETADEEEPELTASLPRELTLQDVELLKVGHVGPLQIGQAVKKPRTVNVEDSWAMEATASAASTSVTFREMDMSPEEVVASPRASPAKQRGPEAASNIQQCLFLKKMGAKGSTPGMFNLPVSLYVTSQGEVLVADRGNYRIQVFTRKGFLKEIRRSPSGIDSFVLSFLGADLPNLTPLSVAMNCQGLIGVTDSYDNSLKVYTLDGHCVACHRSQLSKPWGITALPSGQFVVTDVEGGKLWCFTVDRGSGVVKYSCLCSAVRPKFVTCDAEGTVYFTQGLGLNLENRQNEHHLEGGFSIGSVGPDGQLGRQISHFFSENEDFRCIAGMCVDARGDLIVADSSRKEILHFPKGGGYSVLIREGLTCPVGIALTPKGQLLVLDCWDHCIKIYSYHLRRYSTP
# B4: TRIM33: human RING type E3 ligase expressed from lentiviral vector (protein, UniProt Q9UPN9 1-1127, looked up)
# E3 ubiquitin-protein ligase …: MAENKGGGEAESGGGGSGSAPVTAGAAGPAAQEAEPPLTAVLVEEEEEEGGRAGAEGGAAGPDDGGVAAASSGSAQAASSPAASVGTGVAGGAVSTPAPAPASAPAPGPSAGPPPGPPASLLDTCAVCQQSLQSRREAEPKLLPCLHSFCLRCLPEPERQLSVPIPGGSNGDIQQVGVIRCPVCRQECRQIDLVDNYFVKDTSEAPSSSDEKSEQVCTSCEDNASAVGFCVECGEWLCKTCIEAHQRVKFTKDHLIRKKEDVSESVGASGQRPVFCPVHKQEQLKLFCETCDRLTCRDCQLLEHKEHRYQFLEEAFQNQKGAIENLLAKLLEKKNYVHFAATQVQNRIKEVNETNKRVEQEIKVAIFTLINEINKKGKSLLQQLENVTKERQMKLLQQQNDITGLSRQVKHVMNFTNWAIASGSSTALLYSKRLITFQLRHILKARCDPVPAANGAIRFHCDPTFWAKNVVNLGNLVIESKPAPGYTPNVVVGQVPPGTNHISKTPGQINLAQLRLQHMQQQVYAQKHQQLQQMRMQQPPAPVPTTTTTTQQHPRQAAPQMLQQQPPRLISVQTMQRGNMNCGAFQAHQMRLAQNAARIPGIPRHSGPQYSMMQPHLQRQHSNPGHAGPFPVVSVHNTTINPTSPTTATMANANRGPTSPSVTAIELIPSVTNPENLPSLPDIPPIQLEDAGSSSLDNLLSRYISGSHLPPQPTSTMNPSPGPSALSPGSSGLSNSHTPVRPPSTSSTGSRGSCGSSGRTAEKTSLSFKSDQVKVKQEPGTEDEICSFSGGVKQEKTEDGRRSACMLSSPESSLTPPLSTNLHLESELDALASLENHVKIEPADMNESCKQSGLSSLVNGKSPIRSLMHRSARIGGDGNNKDDDPNEDWCAVCQNGGDLLCCEKCPKVFHLTCHVPTLLSFPSGDWICTFCRDIGKPEVEYDCDNLQHSKKGKTAQGLSPVDQRKCERLLLYLYCHELSIEFQEPVPASIPNYYKIIKKPMDLSTVKKKLQKKHSQHYQIPDDFVADVRLIFKNCERFNEMMKVVQVYADTQEINLKADSEVAQAGKAVALYFEDKLTEIYSDRTFAPLPEFEQEEDDGEVTEDSDEDFIQPRRKRLKSDERPVHIK
# B5: TRIM34: human RING type E3 ligase expressed from lentiviral vector (protein, UniProt Q9BYJ4 1-488, looked up)
# E3 ubiquitin-protein ligase …: MASKILLNVQEEVTCPICLELLTEPLSLDCGHSLCRACITVSNKEAVTSMGGKSSCPVCGISYSFEHLQANQHLANIVERLKEVKLSPDNGKKRDLCDHHGEKLLLFCKEDRKVICWLCERSQEHRGHHTVLTEEVFKECQEKLQAVLKRLKKEEEEAEKLEADIREEKTSWKYQVQTERQRIQTEFDQLRSILNNEEQRELQRLEEEEKKTLDKFAEAEDELVQQKQLVRELISDVECRSQWSTMELLQDMSGIMKWSEIWRLKKPKMVSKKLKTVFHAPDLSRMLQMFRELTAVRCYWVDVTLNSVNLNLNLVLSEDQRQVISVPIWPFQCYNYGVLGSQYFSSGKHYWEVDVSKKTAWILGVYCRTYSRHMKYVVRRCANRQNLYTKYRPLFGYWVIGLQNKCKYGVFEESLSSDPEVLTLSMAVPPCRVGVFLDYEAGIVSFFNVTSHGSLIYKFSKCCFSQPVYPYFNPWNCPAPMTLCPPSS
# B6: RNF41: human RING type E3 ligase expressed from lentiviral vector (protein, UniProt Q9H4P4 1-317, looked up)
# E3 ubiquitin-protein ligase …: MGYDVTRFQGDVDEDLICPICSGVLEEPVQAPHCEHAFCNACITQWFSQQQTCPVDRSVVTVAHLRPVPRIMRNMLSKLQIACDNAVFGCSAVVRLDNLMSHLSDCEHNPKRPVTCEQGCGLEMPKDELPNHNCIKHLRSVVQQQQTRIAELEKTSAEHKHQLAEQKRDIQLLKAYMRAIRSVNPNLQNLEETIEYNEILEWVNSLQPARVTRWGGMISTPDAVLQAVIKRSLVESGCPASIVNELIENAHERSWPQGLATLETRQMNRRYYENYVAKRIPGKQAVVVMACENQHMGDDMVQEPGLVMIFAHGVEEI
# modifications: lentiviral expression
# notes: as for B1
# System: coxsackievirus B3 (CVB3-GFP)
# Type: cell-based
# Conditions: HeLa cells, GFP-positive cells within RFP-positive gate, replicate R1
row,Molecule,Percent Infected R1
1,B1,60.7%
2,B2,68%
3,B3,58.4%
4,B4,55.3%
5,B5,62.2%
6,B6,93.5%

# Same assay, conditions: HeLa cells, replicate R1
row,Molecule,Z score R1
1,B1,−0.355
2,B2,−0.262
3,B3,−0.384
4,B4,−0.424
5,B5,−0.336
6,B6,0.06
